Experimental findings from patent publication US20200277375A1 (ULTRAHUMAN FOUR, published 2020) are described below.

Positions count from the first letter of the chain named. Numbers in names are those of the source.

In experiment [1] the target is T1, mouse CD47-Fc (mouse, UniProt Q61735 19-140, limits assumed).
T1 construct: Recombinant CD47-Fc; also called mCD47-Fc; mCD37-Fc [sic]; not shown: Fc part
T1 sequence (looked up): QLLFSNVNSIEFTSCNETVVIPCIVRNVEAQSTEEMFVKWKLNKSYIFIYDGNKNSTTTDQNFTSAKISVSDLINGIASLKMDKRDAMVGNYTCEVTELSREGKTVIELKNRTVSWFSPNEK
In words: direct specificity ELISA, IgG 1 µg/ml, FIG. 5A. An excerpt: (§1) FIG. 5A-FIG. 5G. Binding specificity analyses for prioritized lead clones. Off-target homologue binding risk for mVH/mVL in IgG1 (FIG. 5A) and IgG1null (FIG. 5B) format and library-derived leads A-D5 (FIG. 5C), VH-A1/VL-B1 (FIG. 5D), F-E7 (FIG. 5E), D-H3 (FIG. 5F), and G-B6 (FIG. 5G) in IgG1null format was examined by direct ELISA on CD47-Fc orthologs and a panel of 14 human immunoglobulin superfamily proteins as labelled on each X-axis (“B” refers to blank). Binding to human, cyno and murine CD47-Fcs (h/c/mCD47-Fc) was performed at an IgG concentration of 1 μg/ml. Binding to all other proteins was performed at an IgG concentration of 10 μg/ml.
(§2) To ensure that that lead clones had not suffered from loss of target specificity during the mutation and reselection process; lead and control IgG1 clones were tested for binding to a panel of 14 purified human proteins from the immunoglobulin superfamily (FIG. 5).
(In general: In an ELISA, binding on a coated surface is turned into a signal by an enzyme label.)

Experiment [2] addresses T2, cynomolgus monkey CD47-Fc (cynomolgus monkey, UniProt A0A2K5X523 19-139).
T2 construct: Recombinant CD47-Fc; also called cyno CD47-Fc; cCD47-Fc; not shown: Fc part
In words: direct specificity ELISA, IgG 1 µg/ml, FIG. 5.
Text: as §1, §2

Experiment [3] has as its target T3, human CD47-Fc (human, UniProt Q08722 19-139).
T3 construct: Recombinant CD47-Fc; also called hCD47-Fc; not shown: Fc part
The experiment in a line: direct specificity ELISA, IgG 1 µg/ml, FIG. 5.
Text: as §1, §2

Experiment [4] has as its target T4, human CD47 on cells (human CD47-transfected CHO-K1; HL60) (human, UniProt Q08722 19-323).
T4 construct: whole, on cells; also called human CD47+ cells; human CD47+HL60 cells
In words: flow cytometry, human CD47-transfected CHO-K1, FIG. 6. As to the method:
(§3) FIG. 6A-FIG. 6C. Flow cytometric binding to human and cyno CD47+CHO-K1 cells. Commercial anti-CD47 antibody MS1991, human IgG1 (“I IgG1”) and IgG4 (“I IgG4”) Isotype controls, lead library-derived IgGs in both IgG1null (“IgG1N”) and IgG4(S228P) formats were examined for specific binding on cyno-transfected CHO-K1 cells (FIG. 6A), human-transfected CHO-K1 cells (FIG. 6B), and wild type (wt, i.e. untransfected) CHO-K1 cells (FIG. 6C). IgGs were tested at concentrations ranging from 24-100,000 ng/ml. Concentration-dependent binding was observed against both human and cyno cell lines for all CD47-specific antibodies but not Isotype controls.
(§4) Antibodies to CD47 were analysed for concentration-dependent binding at the cell surface via flow cytometry. CHO-K1 cells were stably transfected with either human, mouse or cyno CD47 full-length cDNAs. Anti-CD47 IgGs mVH/mVL, VH-A1/VL-B1, A-D5, G-B6, F-E7 and D-H3, and an isotype control IgG1 were then all tested in IgG1null and IgG4(S228P) formats, alongside a commercial mouse anti-human CD47 monoclonal MS1991, over a concentration range of 100,000-24 ng/ml for binding to human, cyno or wild type control (‘wt’, i.e. untransfected) CHO-K1.

The target in experiment [5] is T5, cynomolgus monkey CD47 on transfected CHO-K1 cells (cynomolgus monkey, UniProt A0A5F8AK49 19-323 (rhesus entry)).
T5 construct: whole, on cells; also called cyno CD47+ cells
The experiment in a line: flow cytometry, cyno CD47-transfected CHO-K1, FIG. 6. As to the method: as §3, §4
A general note: A flow cytometer gives signals particle by particle.

Experiment [6] concerns the target T1, mouse CD47-Fc. The experiment in a line: direct titration ELISA on coated CD47-Fc, FIG. 3. As to the method:
(§5) FIG. 3A-FIG. 3H. Direct titration ELISA for IgG binding to human, mouse and cyno CD47-Fc proteins. Chimeric anti-CD47 (mVH/mVL), library-derived clones in human IgG1 null format were titrated (in μg/ml) in a direct binding ELISA against human, mouse and cyno CD47-Fc proteins (FIG. 3A-FIG. 3H). […] Clone TTP lost almost all binding function.
(§6) To coat Greiner Bio-One High bind ELISA plates, target proteins were diluted to 1 μg/ml in carbonate buffer and added at 100 μl per well, at 4° C., o/n. Coated plates were washed 3× with PBS pH7.4, blocked with 1% BSA in PBS (380 μl/well) for 1 hr at RT, then washed 3× with PBS-Tween 20 (PBST). CD47 antibodies (100 μl/well; diluted in PBST) were then added and then incubated 1 hr at RT. Plates were then washed 3× with PBST and goat anti-human kappa chain-HRP added (100 μl/well) at RT, for 1 hr. Plates were then washed 3× with PBST and twice with PBS before the addition of 100 μl TMB per well. Reactions were stopped by adding 100 μl 2M H₂SO₄/well and OD was read on a plate reader at 450 nm.

Experiment [7] deals with T1, mouse CD47-Fc. In words: direct titration ELISA, FIG. 3. As to the method:
as §5, §6

Experiment [8] concerns the target T3, human CD47-Fc. In words: direct titration ELISA, FIG. 3. The method, then: as §5, §6
In experiment [9] the target is T1, mouse CD47-Fc. In words: direct titration ELISA, FIG. 18C. As to the method: (§7) FIG. 18A-FIG. 18C. Direct titration ELISA for A-D5.16 and A-D5.16-DI designer IgGs binding to human, mouse and cyno CD47-Fc proteins. Chimeric anti-CD47 (mVH/mVL), designer A-D5.16 and A-D5.16-DI clones in human IgG1null format were titrated (in μg/ml) in a direct binding ELISA against human (FIG. 18A), cyno (FIG. 18B) and mouse (FIG. 18C) CD47-Fc proteins.
as §6

Experiment [10] addresses T3, human CD47-Fc. The experiment in a line: direct titration ELISA, FIG. 18A. The method, then:
as §7, §6

In experiment [11] the target is T2, cynomolgus monkey CD47-Fc. The experiment in a line: direct titration ELISA (FIG. 11) or CD47-SIRPα competition ELISA (FIG. 12). The method, then: as §6
(§8) A competition ELISA assay was established to examine the capacity of optimized leads to block the binding interaction of CD47 with SIRPα. To coat Greiner Bio-One High bind ELISA plates, 10 μg/ml human SIRPα-Fc in carbonate coating buffer was added at 100 μl per well, at 4° C., o/n. Coated plates were washed 3× with PBS pH7.4, blocked with 1% BSA in PBS (380 μl/well) for 1 hr at RT, then washed 3× with PBS-Tween 20 (PBST). Biotinylated human, mouse or cyno CD47-Fc was then added at 0.2 μg/ml in PBS, 100 μl per well, at room temperature for 60 minutes with or without the addition of competing IgGs. Plates were then washed 3× with PBST and Streptavidin-HRP added (100 μl/well) at room temperature, for 1 hr. Plates were then washed 3× with PBST and twice with PBS before the addition of 100 μl TMB per well. Reactions were stopped by adding 100 μl 2M H₂SO₄/well and OD was read on a plate reader at 450 nm.

Experiment [12] addresses T1, mouse CD47-Fc. The description is as above. As to the method: as §6, §8
The target of experiment [13] is T3, human CD47-Fc. The description is as above. As to the method:
as §6, §8

The target of experiment [14] is T2, cynomolgus monkey CD47-Fc. In words: direct specificity ELISA, IgG 10 µg/ml, FIG. 13.
In experiment [15] the target is T1, mouse CD47-Fc. In words: direct specificity ELISA, IgG 10 µg/ml, FIG. 13.
For experiment [16], the target named is T3, human CD47-Fc. The experiment in a line: direct specificity ELISA, IgG 10 µg/ml, FIG. 13.

B1: mVH/mVL (chimeric VxP037) in human IgG1 format (antibody, V domains shown)
VH: EVQLQQFGAELVKPGASMKLSCKASGYTFTNYYVFWVKQRPGQGLEWIGDINPVNGDTNFNEKFKNKATLTVDKSSTTTYLQLSSLTSEDSAVYYCTRGGYTMDYWGQGTLVTVSS
VL: DVVMTQTPLSLSVSLGDQASISCRSSQSLVHSNGNTYLHWYLQKPGQSPKLLIYKVSYRFSGVPDRFSGSGSGTDFTLKISRVEAEDLGVYFCSQNTHVPRTFGQGTKVEIK
notes: also called mVH/mVL in IgG1
For the molecule B1, the binding result with mouse CD47-Fc [1] is given as “binds”.

B2: VH-A1/VL-B1 in human IgG1null format (antibody, V domains shown)
VH: EVQLVQSGAEVKKPGESLKISCKGSGYSFTNYYIFWVRQMPGKGLEWMGIINPVDGDTRYSPSFQGQVTISADKSISTAYLQWSSLKASDTAMYYCARGGFTMDYWGQGTLVTVSS
VL: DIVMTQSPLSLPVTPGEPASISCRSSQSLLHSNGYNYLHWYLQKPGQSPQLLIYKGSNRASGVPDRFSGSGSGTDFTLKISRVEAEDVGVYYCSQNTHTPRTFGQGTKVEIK
notes: Combines the two most humanized observed v-domains; IgG1null (L234A/L235A/G237A), kappa; also called VH-A1/VI-B1
Turning to B2, the OD450 nm (in [2]; with human CD47-Fc [3]) was above 2 OD450 nm each time. Also, the “maximum MFI, fold over untransfected CHO-K1” value in experiment [4] and in [5] was above 10 fold in each case. Moreover, in the experiment with mouse CD47-Fc [6], the binding result is given as “no binding”.

B3: MH (Maximally Humanized) in human IgG1null format (antibody, V domains shown)
VH: B2 VH with M48I, F101Y, Y105I
VL: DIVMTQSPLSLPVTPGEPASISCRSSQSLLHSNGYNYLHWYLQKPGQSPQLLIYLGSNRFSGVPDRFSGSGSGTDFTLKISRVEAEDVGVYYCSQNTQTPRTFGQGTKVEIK
notes: Designer clone; IgG1null, kappa; also called designer clone MH
For the molecule B3, the binding result with mouse CD47-Fc [7] and in the experiment with human CD47-Fc [8] was “binds” throughout.

B4: A-D5.16-DI in human IgG1null format (antibody, V domains shown)
VH: B2 VH with F101Y, Y105R
VL: DIVMTQSPLSLPVTPGEPASISCRSSQSLLHSAGYNYLHWYLQKPGQSPQLLIYKVSNRFSGVPDRFSGSGSGTDFTLKISRVEAEDAGVYYCFQNTHTPRTFGQGTKVEIK
notes: Deimmunised light chain paired with the A-D5.16 VH; IgG1null
For the molecule B4, the binding result with mouse CD47-Fc [9] and with human CD47-Fc [10] was “binds” throughout.

B5: A-D5.16 in human IgG1null format (antibody, V domains shown)
VH: B2 VH with F101Y, Y105R
VL: B4 VL with F60L, A88V
notes: Designer clone from A-D5.4; IgG1null; also called A-D.16
Consider B5, for which the “fold reduction in potency versus A-D5 and mVL/mVH” value (in experiment [11]; with mouse CD47-Fc [12]; with human CD47-Fc [13]) was around 3 fold each time. The OD450 nm (in experiment [14]; with mouse CD47-Fc [15]; with human CD47-Fc [16]) was above 2 OD450 nm in each case.
